The target of one assay is T1, HLA-DRB1*07:01 (human).
T1 construct: whole, on cells; on T2 cells by the general method; the making of this line is not described on its own; also called resistant allele (NMO)
Put plainly: flow cytometry, biotinylated peptide on HLA-expressing T2 cells, streptavidin-PE. A general note: In flow cytometry, cells or beads pass a laser one at a time.

Another assay has as its target T2, HLA-DRB1*04:01 G86L (human).
T2 construct: pocket 1 variant on T2 cells
The description is as above.

Another assay deals with T3, HLA-DRB1*15:01 (human, UniProt P01903 26-216; P01911 30-227, limits assumed).
T3 construct: whole, on cells; HLA class II molecule expressed on class II negative T2 cells that carry DRA1*01:01
The description is as above.

In the next assay the target is T4, HLA-DRB1*04:01 (human, UniProt P01903 26-216; P01911 30-227, limits assumed).
T4 construct: whole, on cells; on T2 cells; also called DR4
T4 MHC II alpha: not shown
T4 MHC II beta: not shown
The description is as above.

Assay [1] deals with T5, HLA-DQ2 (DQA1*05:01/DQB1*02:01) (human, UniProt P01909 24-216, limits assumed).
T5 construct: whole, on cells; on T2 cells
Put plainly: flow cytometry, biotinylated peptide titrated on HLA-expressing T2 cells, streptavidin-PE.

Assay [2] has as its target T6, HLA-DQ2 A57D (DQA1*05:01/DQB1*02:01 A57D) (human, UniProt P01909 24-254; P01920 33-261).
T6 construct: A57D variant of the DQB1 chain, cloned into T2 cells
T6 alpha: not shown
T6 beta: not shown
The assay is described as above.

The target of assay [3] is T7, HLA-DQ2 trans (DQA1*03:01/DQB1*02:01) (human, UniProt P01909 24-216, limits assumed).
T7 construct: whole, on cells; on T2 cells
T7 MHC II alpha: not shown
T7 MHC II beta: not shown
The description is as above.

Assay [4] deals with T8, HLA-DQ8 (DQA1*03:01/DQB1*03:02) (human, UniProt P01909 24-216; P01920 33-230, limits assumed).
T8 construct: whole, on cells; on T2 cells
T8 MHC II alpha: not shown
T8 MHC II beta: not shown
The description is as above.

Another assay concerns the target T9, HLA-DRB1*15:01 A71R (human).
T9 construct: engineered allele on T2 cells
Put plainly: flow cytometry, biotinylated peptide on HLA-expressing T2 cells, streptavidin-PE.

The next assay addresses T10, HLA-DRB1*15:01 V86G (human).
T10 construct: engineered allele on T2 cells
Described as above.

The target in a further assay is T11, HLA-DRB1*15:01 F47Y (human).
T11 construct: engineered allele on T2 cells
The description is as above.

Where no end group is shown, it is not given here. The star is where a group is joined. Biotin = O=C1N[C@H]2[C@H](CS[C@H]2CCCCC(=O)*)N1; PEGS = not defined here

Take SQVETDDLILKPGVV (peptide, UniProt P55087 285-299, looked up, also: biotinylated, site not given here, also called aquaporin 4 peptide 6) [AQP4-6 peptide]: in the assay with HLA-DRB1*07:01, the binding result is on record as “no binding (tested: 100 µM (general method))”.
Consider ENPVVHFFKNIVTPRTPPP (also: biotinylated, site not given here) [MBP^83-101 peptide], for which the binding result with HLA-DRB1*04:01 G86L and with HLA-DRB1*15:01 was “binds” throughout.
For the molecule LVRYWISAFP (also: biotinylated, site not given here, also called RASDRP2) [RASGRP2 78-87 peptide], the binding result with HLA-DRB1*04:01 and with HLA-DRB1*15:01 was “binds” each time.
For the molecule FFRDHSYQEEA (also: biotinylated, site not given here) [MOG^97-109 peptide], in the assay with HLA-DRB1*04:01 G86L, the binding result is “no binding (tested: 100 uM)”.
Still for that read-out and setting: then AMMIARFKMFPEVKEKG (also: biotinylated, site not given here) [GAD65^265-281 peptide], with “no binding (tested: 100 uM)”.
Turning to RSQVETDDLILKPGV (peptide, UniProt P55087 284-298, looked up, also: biotinylated, site not given here, also called aquaporin 4 peptide 5) [AQP4-5 peptide], the binding result in the assay with HLA-DRB1*07:01 is “no binding (tested: 100 µM (general method))”.
With {Biotin-PEGS}-GQVELGGGSSPETLI (reading uncertain, also called HIP9; HIP9-NPY) [Hybrid Insulin Peptide HIP8-NPY], the binding result in [1] was “no binding”; in assay [2] it was “binds”; in [3], “binds”; in the assay with HLA-DRB1*04:01 it was “no binding (tested: 100 uM)”; in the assay with HLA-DRB1*04:01 G86L, “no binding (tested: 100 uM)”.
Turning to {Biotin-PEGS}-GQVELGGGNAVEVLK (reading uncertain) [Hybrid Insulin Peptide HIP6-IAPP2], the binding result with HLA-DRB1*04:01 and with HLA-DRB1*04:01 G86L was “no binding (tested: 100 uM)” throughout.
With HLVEELYLVAGEEG (also: biotinylated, site not given here) [Insulin Mimotope peptide], the binding result in assay [1] is reported as “no binding”; in assay [2], “binds”; in [4], “binds”; in [3], “binds”; in the assay with HLA-DRB1*04:01 it was “binds”.
Take AQGTLSKIFKLGGRDSRSGSPMARR (also: biotinylated, site not given here) [MBP^146-170 peptide]: the binding result with HLA-DRB1*15:01 A71R was “binds”; with HLA-DRB1*15:01 V86G, “binds”; in the assay with HLA-DRB1*04:01 G86L, “binds”; with HLA-DRB1*15:01 it was “no binding (tested: 100 µM (general method))”; with HLA-DRB1*15:01 F47Y, “binds”.
Consider {Biotin-PEGS}-SLQPLALEAEDLQV (reading uncertain) [Hybrid Insulin Peptide HIP11-C peptide], for which the binding result in [2] is “binds”; in assay [4], “no binding”; in assay [3], “binds”; with HLA-DRB1*04:01 it was “no binding (tested: 100 uM)”; in the assay with HLA-DRB1*04:01 G86L it was “no binding (tested: 100 uM)”.
With {Biotin-PEGS}-GQVELGGWSKMDQLA (reading uncertain) [Hybrid Insulin Peptide HIP1-WE14], the binding result with HLA-DRB1*04:01 and in the assay with HLA-DRB1*04:01 G86L was “no binding (tested: 100 uM)” throughout.

Values taken from US20230192808A1 (REGENTS OF THE UNIVERSITY OF COLORADO A BODY CORPORATE, published 2023).
